Source: IntAct's records for PubMed 35512704

B1: Speckle-type POZ protein (Homo sapiens), O43791 (parent)
chain: MSRVPSPPPPAEMSSGPVAESWCYTQIKVVKFSYMWTINNFSFCREEMGEVIKSSTFSSGANDKLKWCLRVNPKGLDEESKDYLSLYLLLVSCPKSEVRAKFKFSILNAKGEETKAMESQRAYRFVQGKDWGFKKFIRRDFLLDEANGLLPDDKLTLFCEVSVVQDSVNISGQNTMNMVKVPECRLADELGGLWENSRFTDCCLCVAGQEFQAHKAILAARSPVFSAMFEHEMEESKKNRVEINDVEPEVFKEMMCFIYTGKAPNLDKMADDLLAAADKYALERLKVMCEDALCSNLSVENAAEILILADLHSADQLKTQAVDFINYHASDVLETSGWKSMVVSHPHLVAEAYRSLASAQCPFLGPPRKRLKQS

Variants of: B1
Details: with cdc27_human CDC27, P30260
MSRVPSPPPPAEMSSGPVAESWCYTQIKVVKFSYMWTINNFSFCREEMGEVIKSSTFSSGANDKLKWCLRVNPKGLDEESKDYLSLCLLLVSCPKSEVRAKFKFSILNAKGEETKAMESQRAYRFVQGKDWGFKKFIRRDFLLDEANGLLPDDKLTLFCEVSVVQDSVNISGQNTMNMVKVPECRLADELGGLWENSRFTDCCLCVAGQEFQAHKAILAARSPVFSAMFEHEMEESKKNRVEINDVEPEVFKEMMCFIYTGKAPNLDKMADDLLAAADKYALERLKVMCEDALCSNLSVENAAEILILADLHSADQLKTQAVDFINYHASDVLETSGWKSMVVSHPHLVAEAYRSLASAQCPFLGPPRKRLKQS [Y87C] was tested, and the “effect of a mutation on the interaction” value was “with no effect”.

Variants of: B1
Details: with cdc73_human CDC73, Q6P1J9
For MSRVPSPPPPAEMSSGPVAESWCYTQIKVVKFSYMWTINNFSFCREEMGEVIKSSTFSSGANDKLKWCLRVNPKGLDEESKDYLSLCLLLVSCPKSEVRAKFKFSILNAKGEETKAMESQRAYRFVQGKDWGFKKFIRRDFLLDEANGLLPDDKLTLFCEVSVVQDSVNISGQNTMNMVKVPECRLADELGGLWENSRFTDCCLCVAGQEFQAHKAILAARSPVFSAMFEHEMEESKKNRVEINDVEPEVFKEMMCFIYTGKAPNLDKMADDLLAAADKYALERLKVMCEDALCSNLSVENAAEILILADLHSADQLKTQAVDFINYHASDVLETSGWKSMVVSHPHLVAEAYRSLASAQCPFLGPPRKRLKQS [Y87C], the “effect of a mutation on the interaction” value was “with no effect”.

Variants of: B1
Details: with cdk4_human CDK4, P11802
cdk4_human CDK4, P11802, sequence (P11802 whole entry): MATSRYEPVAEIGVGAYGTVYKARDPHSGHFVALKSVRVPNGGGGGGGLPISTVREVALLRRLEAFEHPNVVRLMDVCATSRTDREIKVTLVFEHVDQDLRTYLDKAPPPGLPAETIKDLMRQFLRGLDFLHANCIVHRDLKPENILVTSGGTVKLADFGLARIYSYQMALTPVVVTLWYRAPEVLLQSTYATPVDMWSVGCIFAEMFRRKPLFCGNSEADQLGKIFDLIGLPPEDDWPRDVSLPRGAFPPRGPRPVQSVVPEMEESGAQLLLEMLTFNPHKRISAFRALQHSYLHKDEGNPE
For MSRVPSPPPPAEMSSGPVAESWCYTQIKVVKFSYMWTINNFSFCREEMGEVIKSSTFSSGANDKLKWCLRVNPKGLDEESKDYLSLCLLLVSCPKSEVRAKFKFSILNAKGEETKAMESQRAYRFVQGKDWGFKKFIRRDFLLDEANGLLPDDKLTLFCEVSVVQDSVNISGQNTMNMVKVPECRLADELGGLWENSRFTDCCLCVAGQEFQAHKAILAARSPVFSAMFEHEMEESKKNRVEINDVEPEVFKEMMCFIYTGKAPNLDKMADDLLAAADKYALERLKVMCEDALCSNLSVENAAEILILADLHSADQLKTQAVDFINYHASDVLETSGWKSMVVSHPHLVAEAYRSLASAQCPFLGPPRKRLKQS [Y87C], the “effect of a mutation on the interaction” value was “with no effect”.

Variants of: B1
Details: with cdk6_human CDK6, Q00534
cdk6_human CDK6, Q00534, sequence (Q00534 whole entry): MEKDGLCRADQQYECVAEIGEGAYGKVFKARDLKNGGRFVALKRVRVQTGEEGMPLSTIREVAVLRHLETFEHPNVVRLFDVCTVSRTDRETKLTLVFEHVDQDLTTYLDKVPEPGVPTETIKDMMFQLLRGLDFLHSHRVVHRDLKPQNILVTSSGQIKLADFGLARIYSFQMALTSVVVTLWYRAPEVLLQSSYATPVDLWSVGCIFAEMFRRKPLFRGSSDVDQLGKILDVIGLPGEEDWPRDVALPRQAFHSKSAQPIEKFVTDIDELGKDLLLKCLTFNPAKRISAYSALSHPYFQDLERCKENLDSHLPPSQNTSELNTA
For MSRVPSPPPPAEMSSGPVAESWCYTQIKVVKFSYMWTINNFSFCREEMGEVIKSSTFSSGANDKLKWCLRVNPKGLDEESKDYLSLCLLLVSCPKSEVRAKFKFSILNAKGEETKAMESQRAYRFVQGKDWGFKKFIRRDFLLDEANGLLPDDKLTLFCEVSVVQDSVNISGQNTMNMVKVPECRLADELGGLWENSRFTDCCLCVAGQEFQAHKAILAARSPVFSAMFEHEMEESKKNRVEINDVEPEVFKEMMCFIYTGKAPNLDKMADDLLAAADKYALERLKVMCEDALCSNLSVENAAEILILADLHSADQLKTQAVDFINYHASDVLETSGWKSMVVSHPHLVAEAYRSLASAQCPFLGPPRKRLKQS [Y87C], the “effect of a mutation on the interaction” value was “with no effect”.

Variants of: B1
Details: with cdn2c_human CDKN2C
For MSRVPSPPPPAEMSSGPVAESWCYTQIKVVKFSYMWTINNFSFCREEMGEVIKSSTFSSGANDKLKWCLRVNPKGLDEESKDYLSLCLLLVSCPKSEVRAKFKFSILNAKGEETKAMESQRAYRFVQGKDWGFKKFIRRDFLLDEANGLLPDDKLTLFCEVSVVQDSVNISGQNTMNMVKVPECRLADELGGLWENSRFTDCCLCVAGQEFQAHKAILAARSPVFSAMFEHEMEESKKNRVEINDVEPEVFKEMMCFIYTGKAPNLDKMADDLLAAADKYALERLKVMCEDALCSNLSVENAAEILILADLHSADQLKTQAVDFINYHASDVLETSGWKSMVVSHPHLVAEAYRSLASAQCPFLGPPRKRLKQS [Y87C], the “effect of a mutation on the interaction” value was “with no effect”.

Variants of: B1
Details: with chd1l_human CHD1L
MSRVPSPPPPAEMSSGPVAESWCYTQIKVVKFSYMWTINNFSFCREEMGEVIKSSTFSSGANDKLKWCLRVNPKGLDEESKDYLSLCLLLVSCPKSEVRAKFKFSILNAKGEETKAMESQRAYRFVQGKDWGFKKFIRRDFLLDEANGLLPDDKLTLFCEVSVVQDSVNISGQNTMNMVKVPECRLADELGGLWENSRFTDCCLCVAGQEFQAHKAILAARSPVFSAMFEHEMEESKKNRVEINDVEPEVFKEMMCFIYTGKAPNLDKMADDLLAAADKYALERLKVMCEDALCSNLSVENAAEILILADLHSADQLKTQAVDFINYHASDVLETSGWKSMVVSHPHLVAEAYRSLASAQCPFLGPPRKRLKQS [Y87C] was tested, and the “effect of a mutation on the interaction” value was “with no effect”.

Variants of: B1
Details: with chd2_human CHD2, O14647
chd2_human CHD2, O14647, sequence (O14647 whole entry): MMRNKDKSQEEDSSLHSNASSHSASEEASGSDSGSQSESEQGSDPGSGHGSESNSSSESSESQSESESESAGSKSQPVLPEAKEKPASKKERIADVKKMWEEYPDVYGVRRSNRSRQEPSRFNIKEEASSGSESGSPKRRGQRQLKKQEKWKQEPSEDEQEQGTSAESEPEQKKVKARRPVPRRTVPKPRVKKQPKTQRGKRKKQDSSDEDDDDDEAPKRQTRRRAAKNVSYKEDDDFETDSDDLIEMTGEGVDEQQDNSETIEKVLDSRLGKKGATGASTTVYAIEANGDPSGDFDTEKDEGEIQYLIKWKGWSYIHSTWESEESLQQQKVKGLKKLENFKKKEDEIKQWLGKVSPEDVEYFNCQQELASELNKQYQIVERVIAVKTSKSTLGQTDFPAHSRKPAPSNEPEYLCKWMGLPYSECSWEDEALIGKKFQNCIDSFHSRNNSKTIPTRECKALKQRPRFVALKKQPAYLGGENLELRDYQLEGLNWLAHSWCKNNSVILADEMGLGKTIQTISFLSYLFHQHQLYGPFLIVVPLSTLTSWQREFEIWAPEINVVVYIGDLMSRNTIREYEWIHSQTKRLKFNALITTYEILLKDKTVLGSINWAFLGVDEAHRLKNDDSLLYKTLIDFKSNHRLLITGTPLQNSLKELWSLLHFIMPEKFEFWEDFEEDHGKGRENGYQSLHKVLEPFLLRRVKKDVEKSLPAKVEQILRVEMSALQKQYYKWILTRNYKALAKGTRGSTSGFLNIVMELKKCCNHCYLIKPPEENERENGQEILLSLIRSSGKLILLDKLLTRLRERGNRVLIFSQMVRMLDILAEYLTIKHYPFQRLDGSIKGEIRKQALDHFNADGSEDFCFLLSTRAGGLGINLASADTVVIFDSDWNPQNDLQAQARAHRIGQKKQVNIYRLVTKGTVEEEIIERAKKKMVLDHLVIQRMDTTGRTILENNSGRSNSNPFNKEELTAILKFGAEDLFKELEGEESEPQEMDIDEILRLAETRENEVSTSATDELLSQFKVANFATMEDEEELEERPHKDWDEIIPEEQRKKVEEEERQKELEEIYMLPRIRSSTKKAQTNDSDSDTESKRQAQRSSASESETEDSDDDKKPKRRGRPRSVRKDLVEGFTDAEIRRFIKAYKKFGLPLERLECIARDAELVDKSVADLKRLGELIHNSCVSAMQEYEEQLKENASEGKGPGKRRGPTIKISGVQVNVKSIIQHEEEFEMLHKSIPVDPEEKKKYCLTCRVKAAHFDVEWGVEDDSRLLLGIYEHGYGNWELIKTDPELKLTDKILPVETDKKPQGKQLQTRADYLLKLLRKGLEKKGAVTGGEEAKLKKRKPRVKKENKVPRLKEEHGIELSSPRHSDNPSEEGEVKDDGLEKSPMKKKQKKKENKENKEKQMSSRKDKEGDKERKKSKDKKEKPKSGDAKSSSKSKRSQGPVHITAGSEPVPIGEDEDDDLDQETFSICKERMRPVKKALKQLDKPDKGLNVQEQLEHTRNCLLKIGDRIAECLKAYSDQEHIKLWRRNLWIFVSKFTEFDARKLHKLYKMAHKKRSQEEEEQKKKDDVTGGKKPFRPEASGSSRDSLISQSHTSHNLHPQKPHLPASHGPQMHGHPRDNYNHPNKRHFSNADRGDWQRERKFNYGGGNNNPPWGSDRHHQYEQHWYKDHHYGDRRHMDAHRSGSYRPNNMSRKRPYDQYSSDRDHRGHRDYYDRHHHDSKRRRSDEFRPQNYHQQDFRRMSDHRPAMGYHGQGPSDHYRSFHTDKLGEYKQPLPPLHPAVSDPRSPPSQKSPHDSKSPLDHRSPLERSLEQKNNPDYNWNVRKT
MSRVPSPPPPAEMSSGPVAESWCYTQIKVVKFSYMWTINNFSFCREEMGEVIKSSTFSSGANDKLKWCLRVNPKGLDEESKDYLSLCLLLVSCPKSEVRAKFKFSILNAKGEETKAMESQRAYRFVQGKDWGFKKFIRRDFLLDEANGLLPDDKLTLFCEVSVVQDSVNISGQNTMNMVKVPECRLADELGGLWENSRFTDCCLCVAGQEFQAHKAILAARSPVFSAMFEHEMEESKKNRVEINDVEPEVFKEMMCFIYTGKAPNLDKMADDLLAAADKYALERLKVMCEDALCSNLSVENAAEILILADLHSADQLKTQAVDFINYHASDVLETSGWKSMVVSHPHLVAEAYRSLASAQCPFLGPPRKRLKQS [Y87C] was tested, and the “effect of a mutation on the interaction” value was “with no effect”.

Variants of: B1
Details: with chk2_human CHEK2, O96017
chk2_human CHEK2, O96017, sequence (O96017 whole entry): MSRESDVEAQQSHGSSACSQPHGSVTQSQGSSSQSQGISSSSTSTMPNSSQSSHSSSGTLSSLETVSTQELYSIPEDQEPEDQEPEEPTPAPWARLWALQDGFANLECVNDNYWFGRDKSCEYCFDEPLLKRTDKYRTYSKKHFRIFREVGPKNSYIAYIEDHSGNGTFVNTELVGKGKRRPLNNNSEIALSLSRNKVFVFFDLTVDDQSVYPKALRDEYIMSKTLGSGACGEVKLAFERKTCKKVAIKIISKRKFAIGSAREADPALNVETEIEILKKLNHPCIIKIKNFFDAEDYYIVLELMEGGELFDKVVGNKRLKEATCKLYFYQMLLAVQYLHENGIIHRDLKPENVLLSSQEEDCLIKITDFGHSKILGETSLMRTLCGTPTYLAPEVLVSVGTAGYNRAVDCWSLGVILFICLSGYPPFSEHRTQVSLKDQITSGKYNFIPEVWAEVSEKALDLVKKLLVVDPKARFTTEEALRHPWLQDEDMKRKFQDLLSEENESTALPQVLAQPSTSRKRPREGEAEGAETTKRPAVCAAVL
For MSRVPSPPPPAEMSSGPVAESWCYTQIKVVKFSYMWTINNFSFCREEMGEVIKSSTFSSGANDKLKWCLRVNPKGLDEESKDYLSLCLLLVSCPKSEVRAKFKFSILNAKGEETKAMESQRAYRFVQGKDWGFKKFIRRDFLLDEANGLLPDDKLTLFCEVSVVQDSVNISGQNTMNMVKVPECRLADELGGLWENSRFTDCCLCVAGQEFQAHKAILAARSPVFSAMFEHEMEESKKNRVEINDVEPEVFKEMMCFIYTGKAPNLDKMADDLLAAADKYALERLKVMCEDALCSNLSVENAAEILILADLHSADQLKTQAVDFINYHASDVLETSGWKSMVVSHPHLVAEAYRSLASAQCPFLGPPRKRLKQS [Y87C], the “effect of a mutation on the interaction” value was “with no effect”.

Variants of: B1
Details: with ch3l1_human CHI3L1, P36222
ch3l1_human CHI3L1, P36222, sequence (P36222 whole entry): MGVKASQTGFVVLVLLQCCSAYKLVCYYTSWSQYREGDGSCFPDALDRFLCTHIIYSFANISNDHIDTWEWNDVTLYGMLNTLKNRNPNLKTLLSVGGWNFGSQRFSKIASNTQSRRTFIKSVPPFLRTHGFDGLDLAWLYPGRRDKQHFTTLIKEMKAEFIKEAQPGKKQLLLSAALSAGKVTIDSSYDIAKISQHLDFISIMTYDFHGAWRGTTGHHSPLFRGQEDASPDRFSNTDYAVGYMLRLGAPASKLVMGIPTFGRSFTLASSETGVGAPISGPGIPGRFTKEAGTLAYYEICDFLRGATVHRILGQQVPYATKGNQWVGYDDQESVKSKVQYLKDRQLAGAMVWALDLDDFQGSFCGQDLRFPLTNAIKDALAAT
In the case of MSRVPSPPPPAEMSSGPVAESWCYTQIKVVKFSYMWTINNFSFCREEMGEVIKSSTFSSGANDKLKWCLRVNPKGLDEESKDYLSLCLLLVSCPKSEVRAKFKFSILNAKGEETKAMESQRAYRFVQGKDWGFKKFIRRDFLLDEANGLLPDDKLTLFCEVSVVQDSVNISGQNTMNMVKVPECRLADELGGLWENSRFTDCCLCVAGQEFQAHKAILAARSPVFSAMFEHEMEESKKNRVEINDVEPEVFKEMMCFIYTGKAPNLDKMADDLLAAADKYALERLKVMCEDALCSNLSVENAAEILILADLHSADQLKTQAVDFINYHASDVLETSGWKSMVVSHPHLVAEAYRSLASAQCPFLGPPRKRLKQS [Y87C], the “effect of a mutation on the interaction” value is reported as “with no effect”.

Variants of: B1
Details: with csf1r_human CSF1R
For MSRVPSPPPPAEMSSGPVAESWCYTQIKVVKFSYMWTINNFSFCREEMGEVIKSSTFSSGANDKLKWCLRVNPKGLDEESKDYLSLCLLLVSCPKSEVRAKFKFSILNAKGEETKAMESQRAYRFVQGKDWGFKKFIRRDFLLDEANGLLPDDKLTLFCEVSVVQDSVNISGQNTMNMVKVPECRLADELGGLWENSRFTDCCLCVAGQEFQAHKAILAARSPVFSAMFEHEMEESKKNRVEINDVEPEVFKEMMCFIYTGKAPNLDKMADDLLAAADKYALERLKVMCEDALCSNLSVENAAEILILADLHSADQLKTQAVDFINYHASDVLETSGWKSMVVSHPHLVAEAYRSLASAQCPFLGPPRKRLKQS [Y87C], the “effect of a mutation on the interaction” value was “with no effect”.

Variants of: B1
Details: with ctla4_human CTLA4, P16410
With MSRVPSPPPPAEMSSGPVAESWCYTQIKVVKFSYMWTINNFSFCREEMGEVIKSSTFSSGANDKLKWCLRVNPKGLDEESKDYLSLCLLLVSCPKSEVRAKFKFSILNAKGEETKAMESQRAYRFVQGKDWGFKKFIRRDFLLDEANGLLPDDKLTLFCEVSVVQDSVNISGQNTMNMVKVPECRLADELGGLWENSRFTDCCLCVAGQEFQAHKAILAARSPVFSAMFEHEMEESKKNRVEINDVEPEVFKEMMCFIYTGKAPNLDKMADDLLAAADKYALERLKVMCEDALCSNLSVENAAEILILADLHSADQLKTQAVDFINYHASDVLETSGWKSMVVSHPHLVAEAYRSLASAQCPFLGPPRKRLKQS [Y87C] the “effect of a mutation on the interaction” value was “with no effect”.

Variants of: B1
Details: with cul3_human CUL3, Q13618
cul3_human CUL3, Q13618, sequence (Q13618 whole entry): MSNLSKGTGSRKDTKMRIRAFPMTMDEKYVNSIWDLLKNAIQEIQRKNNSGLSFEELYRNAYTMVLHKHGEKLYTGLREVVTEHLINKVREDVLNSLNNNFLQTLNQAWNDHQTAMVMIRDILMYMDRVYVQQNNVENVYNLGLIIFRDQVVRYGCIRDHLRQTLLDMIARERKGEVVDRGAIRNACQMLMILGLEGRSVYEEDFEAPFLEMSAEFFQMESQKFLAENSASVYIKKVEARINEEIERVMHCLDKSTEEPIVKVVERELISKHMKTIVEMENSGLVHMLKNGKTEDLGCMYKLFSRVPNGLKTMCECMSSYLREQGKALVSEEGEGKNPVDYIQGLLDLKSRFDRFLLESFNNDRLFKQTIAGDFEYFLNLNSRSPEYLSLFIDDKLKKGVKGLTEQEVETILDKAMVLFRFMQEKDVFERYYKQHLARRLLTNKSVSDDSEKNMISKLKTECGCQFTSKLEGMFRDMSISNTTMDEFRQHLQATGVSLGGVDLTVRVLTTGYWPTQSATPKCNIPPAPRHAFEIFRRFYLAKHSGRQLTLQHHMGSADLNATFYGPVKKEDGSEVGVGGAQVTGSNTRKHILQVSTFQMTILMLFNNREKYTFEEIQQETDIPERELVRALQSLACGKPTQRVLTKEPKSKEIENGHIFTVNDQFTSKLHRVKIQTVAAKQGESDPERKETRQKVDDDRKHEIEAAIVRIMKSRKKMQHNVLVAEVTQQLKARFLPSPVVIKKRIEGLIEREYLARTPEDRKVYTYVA
In the case of MSRVPSPPPPAEMSSGPVAESWCYTQIKVVKFSYMWTINNFSFCREEMGEVIKSSTFSSGANDKLKWCLRVNPKGLDEESKDYLSLCLLLVSCPKSEVRAKFKFSILNAKGEETKAMESQRAYRFVQGKDWGFKKFIRRDFLLDEANGLLPDDKLTLFCEVSVVQDSVNISGQNTMNMVKVPECRLADELGGLWENSRFTDCCLCVAGQEFQAHKAILAARSPVFSAMFEHEMEESKKNRVEINDVEPEVFKEMMCFIYTGKAPNLDKMADDLLAAADKYALERLKVMCEDALCSNLSVENAAEILILADLHSADQLKTQAVDFINYHASDVLETSGWKSMVVSHPHLVAEAYRSLASAQCPFLGPPRKRLKQS [Y87C], the “effect of a mutation on the interaction” value is reported as “with no effect”.

Variants of: B1
Details: with cul4b_human CUL4B
MSRVPSPPPPAEMSSGPVAESWCYTQIKVVKFSYMWTINNFSFCREEMGEVIKSSTFSSGANDKLKWCLRVNPKGLDEESKDYLSLCLLLVSCPKSEVRAKFKFSILNAKGEETKAMESQRAYRFVQGKDWGFKKFIRRDFLLDEANGLLPDDKLTLFCEVSVVQDSVNISGQNTMNMVKVPECRLADELGGLWENSRFTDCCLCVAGQEFQAHKAILAARSPVFSAMFEHEMEESKKNRVEINDVEPEVFKEMMCFIYTGKAPNLDKMADDLLAAADKYALERLKVMCEDALCSNLSVENAAEILILADLHSADQLKTQAVDFINYHASDVLETSGWKSMVVSHPHLVAEAYRSLASAQCPFLGPPRKRLKQS [Y87C] was tested, and the “effect of a mutation on the interaction” value was “with no effect”.

Variants of: B1
Details: with daxx_human DAXX
With MSRVPSPPPPAEMSSGPVAESWCYTQIKVVKFSYMWTINNFSFCREEMGEVIKSSTFSSGANDKLKWCLRVNPKGLDEESKDYLSLCLLLVSCPKSEVRAKFKFSILNAKGEETKAMESQRAYRFVQGKDWGFKKFIRRDFLLDEANGLLPDDKLTLFCEVSVVQDSVNISGQNTMNMVKVPECRLADELGGLWENSRFTDCCLCVAGQEFQAHKAILAARSPVFSAMFEHEMEESKKNRVEINDVEPEVFKEMMCFIYTGKAPNLDKMADDLLAAADKYALERLKVMCEDALCSNLSVENAAEILILADLHSADQLKTQAVDFINYHASDVLETSGWKSMVVSHPHLVAEAYRSLASAQCPFLGPPRKRLKQS [Y87C] the “effect of a mutation on the interaction” value was “with no effect”.

Variants of: B1
Details: with ddx5_human DDX5, P17844
ddx5_human DDX5, P17844, sequence (P17844 whole entry): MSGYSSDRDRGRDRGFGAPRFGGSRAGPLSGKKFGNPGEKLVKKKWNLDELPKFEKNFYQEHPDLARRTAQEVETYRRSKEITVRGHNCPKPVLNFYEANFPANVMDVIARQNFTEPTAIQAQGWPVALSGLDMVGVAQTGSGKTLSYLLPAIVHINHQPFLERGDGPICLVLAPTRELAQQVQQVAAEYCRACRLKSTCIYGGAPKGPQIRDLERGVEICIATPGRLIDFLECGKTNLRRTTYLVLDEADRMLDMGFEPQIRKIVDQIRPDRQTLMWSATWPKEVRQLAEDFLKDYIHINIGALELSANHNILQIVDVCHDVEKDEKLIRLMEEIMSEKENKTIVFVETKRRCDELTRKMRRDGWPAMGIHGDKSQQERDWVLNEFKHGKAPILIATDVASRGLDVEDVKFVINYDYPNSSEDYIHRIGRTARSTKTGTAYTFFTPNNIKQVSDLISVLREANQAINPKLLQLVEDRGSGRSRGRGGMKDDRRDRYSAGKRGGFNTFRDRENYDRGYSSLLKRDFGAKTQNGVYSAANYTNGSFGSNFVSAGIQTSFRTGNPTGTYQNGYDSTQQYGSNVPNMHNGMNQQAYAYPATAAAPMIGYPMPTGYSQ
MSRVPSPPPPAEMSSGPVAESWCYTQIKVVKFSYMWTINNFSFCREEMGEVIKSSTFSSGANDKLKWCLRVNPKGLDEESKDYLSLCLLLVSCPKSEVRAKFKFSILNAKGEETKAMESQRAYRFVQGKDWGFKKFIRRDFLLDEANGLLPDDKLTLFCEVSVVQDSVNISGQNTMNMVKVPECRLADELGGLWENSRFTDCCLCVAGQEFQAHKAILAARSPVFSAMFEHEMEESKKNRVEINDVEPEVFKEMMCFIYTGKAPNLDKMADDLLAAADKYALERLKVMCEDALCSNLSVENAAEILILADLHSADQLKTQAVDFINYHASDVLETSGWKSMVVSHPHLVAEAYRSLASAQCPFLGPPRKRLKQS [Y87C] was tested, and the “effect of a mutation on the interaction” value was “with no effect”.
